# Positions of bridges follow the written chain, without caps; N, C: chain ends. Non-standard residues stand in square brackets, D forms with d. No end group written: not given here. Aib = CC(C)(N)C(=O)O
# Tests used:
# Type in all cases: cell-based
# [1] = molecular target: T1, human GIP receptor (Homo sapiens, UniProt P48546); test: In vitro cAMP activity (LANCE cAMP kit) in CHO cells expressing human GIP receptor, relative to human GIP; conditions: long-acting conjugates, relative potency from cAMP EC50 compared to human GIP
# T1 construct: expressed in transfected cells; host or cells: Chinese hamster ovary (CHO)
# T1 sequence (P48546 22-466): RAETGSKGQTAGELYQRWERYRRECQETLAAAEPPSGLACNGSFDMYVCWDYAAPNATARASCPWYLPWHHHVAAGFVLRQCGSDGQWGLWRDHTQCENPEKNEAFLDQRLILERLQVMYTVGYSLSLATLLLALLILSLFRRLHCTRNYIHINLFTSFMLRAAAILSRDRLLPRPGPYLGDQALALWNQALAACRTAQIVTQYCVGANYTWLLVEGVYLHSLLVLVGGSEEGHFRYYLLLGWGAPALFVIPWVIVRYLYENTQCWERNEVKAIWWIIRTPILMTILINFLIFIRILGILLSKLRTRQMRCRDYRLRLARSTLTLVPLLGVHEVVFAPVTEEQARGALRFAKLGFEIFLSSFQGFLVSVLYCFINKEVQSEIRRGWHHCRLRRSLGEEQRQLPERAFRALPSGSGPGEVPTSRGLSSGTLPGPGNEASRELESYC
# Method: (§1) The activities of the triple agonists and long-acting conjugates thereof prepared in Examples 1 and 2 were measured by a method of measuring in vitro cellular activities using cell lines, where a GLP-1 receptor, a glucagon (GCG) receptor, and a GIP receptor are transformed, respectively.
# (§2) Each of the cell lines above is one in which the genes for human GLP-1 receptor, human GCG receptor, and human GIP receptor were transformed in Chinese hamster ovary (CHO), respectively, and can be expressed therein, and is thus suitable for the measurement of the activities of GLP-1, GCG, and GIP. Accordingly, the activity for each part was measured using the respective transformed cell line.
# (§3) For the measurement of the GIP activities of the triple agonists and long-acting conjugates prepared in Examples 1 and 2, human GIP was subjected to a 4-fold serial dilution from 50 nM to 0.000048 nM, and the triple agonists and long-acting conjugates thereof prepared in Examples 1 and 2 were subjected to a 4-fold serial dilution from 400 nM to 0.00038 nM. The culture solution was removed from the cultured CHO cells, in which the human GIP receptor was expressed, and each of the serially-diluted materials was added to the CHO cells in an amount of 5 μL, respectively. Then, a buffer solution containing cAMP antibody was added thereto in an amount of 5 μL and cultured at room temperature for 15 minutes. Then, a detection mix containing a cell lysis buffer was added thereto in an amount of 10 μL for the lysis of the cells and reacted at room temperature for 90 minutes. The cell lysates, upon completion of the reaction, were applied to LANCE cAMP kit (PerkinElmer, USA) to calculate the EC50 value via accumulated cAMP, and the values were compared with each other.
# [2] = molecular target: T2, human GCG receptor (Homo sapiens, UniProt P47871); test: In vitro cAMP activity (LANCE cAMP kit) in CHO cells expressing human GCG receptor, relative to human GCG; conditions: long-acting conjugates, relative potency from cAMP EC50 compared to human GCG
# T2 construct: expressed in transfected cells; host or cells: Chinese hamster ovary (CHO)
# Method: as §1, §2
# as §3, with “GCG” for “GIP”
# [3] = molecular target: T3, human GLP-1 receptor (Homo sapiens, UniProt P43220); test: In vitro cAMP activity (LANCE cAMP kit) in CHO cells expressing human GLP-1 receptor, relative to human GLP-1; conditions: long-acting conjugates; relative potency from cAMP EC50 compared to human GLP-1, CHO cells
# T3 construct: expressed in transfected cells; host or cells: Chinese hamster ovary (CHO)
# Method: as §1, §2
# as §3, with “GLP-1” for “GIP”
# T2 sequence (P47871 26-477): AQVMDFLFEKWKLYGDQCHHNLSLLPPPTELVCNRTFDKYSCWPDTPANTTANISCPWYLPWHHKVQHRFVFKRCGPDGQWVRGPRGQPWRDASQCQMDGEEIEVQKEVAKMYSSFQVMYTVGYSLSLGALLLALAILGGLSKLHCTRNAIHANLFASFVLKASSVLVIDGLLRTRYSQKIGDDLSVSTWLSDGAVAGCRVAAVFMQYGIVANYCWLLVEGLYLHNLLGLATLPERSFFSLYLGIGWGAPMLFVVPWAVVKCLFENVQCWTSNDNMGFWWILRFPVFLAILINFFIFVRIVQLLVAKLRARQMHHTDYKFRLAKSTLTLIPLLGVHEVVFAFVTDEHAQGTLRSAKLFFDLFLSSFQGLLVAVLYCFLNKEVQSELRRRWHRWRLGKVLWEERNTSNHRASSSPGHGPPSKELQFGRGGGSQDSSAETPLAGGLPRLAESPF
# T3 sequence (P43220 24-463): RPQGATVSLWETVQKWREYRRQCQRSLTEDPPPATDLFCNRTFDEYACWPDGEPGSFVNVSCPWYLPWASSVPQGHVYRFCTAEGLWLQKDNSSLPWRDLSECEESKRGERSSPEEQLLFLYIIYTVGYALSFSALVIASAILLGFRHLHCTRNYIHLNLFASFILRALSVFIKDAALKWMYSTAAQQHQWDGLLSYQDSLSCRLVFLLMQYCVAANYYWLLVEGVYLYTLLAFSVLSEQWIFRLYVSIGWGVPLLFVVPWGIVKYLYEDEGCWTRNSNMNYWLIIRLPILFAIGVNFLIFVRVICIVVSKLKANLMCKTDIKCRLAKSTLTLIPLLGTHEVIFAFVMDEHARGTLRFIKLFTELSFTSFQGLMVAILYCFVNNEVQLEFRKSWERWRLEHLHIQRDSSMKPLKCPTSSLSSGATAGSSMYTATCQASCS
In vitro activity compared to native peptide (%) vs. GIP [1] [%],In vitro activity compared to native peptide (%) vs. Glucagon [2] [%],In vitro activity compared to native peptide (%) vs. GLP-1 [3] [%],Substance
1.2,23.1,3.1,42 (Y[Aib]QGTFTSDYSKYLDEKRAKEFVQWLLDHHPSSGQPPPSC; bridge 16-20) [compound 42]
0.6,13.5,2.1,43 (Y[Aib]QGTFTSDYSKYLDEKRAKEFVQWLLDHHCSSGQPPPS; bridge 16-20) [compound 43]
0.7,6.9,15.4,50 (H[Aib]QGTFTSDYSKYLDEKRAKEFVQWLLDHHPSSGQPPPSC; bridge 16-20) [compound 50]

# Continued, substance first:
Substance,In vitro activity compared to native peptide (%) vs. GIP [1] [%],In vitro activity compared to native peptide (%) vs. Glucagon [2] [%],In vitro activity compared to native peptide (%) vs. GLP-1 [3] [%]
21 (Y[Aib]QGTFTSDYSKYLDECRAKEFVQWLLDHHPSSGQPPPS; bridge 16-20) [compound 21],0.2,1.6,0.1
22 (Y[Aib]QGTFTSDYSKCLDEKRAKEFVQWLLDHHPSSGQPPPS; bridge 16-20) [compound 22],0.5,0.9,0.1
77 (Y[Aib]QGTFTSDYSKYLDEKAAKDFVQWLLDHHPSSGQPPPSC; bridge 16-20) [compound 77],6.6,1.7,6.7
96 (Y[Aib]QGTFTSDYSKYLDEKRAKEFVQWLLDHCPSSGQPPPS; bridge 16-20) [compound 96],0.3,4.0,0.3

# From patent US10981967B2, “Long-acting conjugate of triple glucagon/GLP-1/GIP receptor agonist” (HANMI PHARM. CO., LTD., priority 2015, dated 2021)
